Test results reported in patent publication US12551573B2, “Compositions and methods for the targeting of PCSK9” (Scribe Therapeutics Inc., priority 2022, dated 2026).
Changes are numbered by the printed parent chain.

B1: DOMAIN_6952 (protein, listed as Alligator mississippiensis)
chain: DQLQEAFEDVALYFTQNEWELLGDGDKVLYRDQMLRNYQALVSLGYQGPAPDLISRIQRQEVELWVCEEENPGESVWTEGL
B2: DOMAIN_5946 (protein, listed as Homo sapiens)
chain: RQAFLAFGDVTVDFTQKEWRLLSPAQRALYREVTLENYSHLVSLGILHSKPELIRRLEQGEVPWGEERRRRPGPCAGIYAE
B3: DOMAIN_7183 (protein)
chain: VQVPVTFEDVAVYFSEDEWGMLAGWQKELYKETMKENYETLTLLGCLSEKPSLISKIEREEDPCVRDQQDPRDRRKLRSSW
modifications: Microcaecilia unicolor
B4: DOMAIN_7353 (protein)
chain: AQMQVTFEDIAVFFCHEEWKYLDDGQKELYKEVMKENYETLISLGFLCEKPSLISKIEREEDPCVRDQQDFRERRRRLKSF
modifications: Microcaecilia unicolor
B5: DOMAIN_6472 (protein, listed as Alligator sinensis)
chain: VVLLEAFEDVAVYFTQKEWALLDDGDKALYRDQMLRNYQALISLGYRGPTPALINRIQRGEMELWVCDKDYGEKSSLEGLF
B6: DOMAIN_6445 (protein, listed as Alligator sinensis)
chain: MELREAFEDVAVYFTRKEWELLEDEDKELYRDLMLRNYQALVSLGYQGPTPGLICRIKQREVELWVCDDEHHGESSVSENL
B7: DOMAIN_7109 (protein)
chain: MRVTFEDIAVSFSQEEWEYLDEEQKELYREVMKENYQTLISLGAGSLTFTPEIISHIERGEEPYSRDEPGSGEREPGKSRC
modifications: Microcaecilia unicolor
B8: DOMAIN_6410 (protein, listed as Podarcis muralis)
chain: GLVSFDEVSVHFTNEEWALLDPGQRALYEEVMEEIREMMTSVGDVSEFLTEGEQSEPSREGAEEQKEQRKQRVQVGTYRKE
B9: DOMAIN_6697 (protein, listed as Podarcis muralis)
chain: B8 chain with L2S, H11R, T13S
B10: DOMAIN_6433 (protein, listed as Podarcis muralis)
chain: B8 chain with L2S, H11R, T13S, P57L, K80N
B11: DOMAIN_6398 (protein, listed as Gopherus agassizii)
chain: MPVTFEEVAVYFTEGQGALLDPAQRALYRDVMQEIYEMVISLGFLLPKPDVIIQLERGEEPWVPDLQGSAEREMSRGTCAG
B12: DOMAIN_6356 (protein, listed as Terrapene carolina)
chain: MSVTFEDVAMYFSPAEWVLLGEEQKQLYRHVMWENYQTLVSLGIQISKPVVISSIERGEELWAQSPTEDEDEDILSGTSPG
B13: DOMAIN_7098 (protein)
chain: QVPVIFEDVAVYFWEEEWEMLEEWQKELYKETMKENYKTLVSLGMELPTEKPDLIVRIEREENPCVKAQWDSRDKTRWRNS
modifications: Microcaecilia unicolor
B14: DOMAIN_6737 (protein)
chain: QMLVTFEDIAVSFSKEEWEYLDEGQKELYREVMKENYQTLISLGTGFPTVIPEIISHIEQGDEPGSEERENGKSSCSGESG
modifications: Microcaecilia unicolor
B15: DOMAIN_5791 (protein, listed as Homo sapiens)
chain: EPGAVSFADVAVYFCREEWGCLRPAQRALYRDVMRETYGHLSALGIGGNKPALISWVEEEAELWGPAAQDPEVAKCQTQTD
B16: DOMAIN_7184 (protein)
chain: TQMQVKFDDIAVSFSQEEWKYLDEEQKELYREVMKENYQILISLGTGSSTTPKIISHIERGEEPYIRDEPVLVERKTGKSS
modifications: Microcaecilia unicolor
B17: DOMAIN_6938 (protein, listed as Alligator mississippiensis)
chain: SKLPEAFEDVAVYFTRKEWELLEAGDKGLYQDQMLRNYQALVSLGLQGPAPDLICRMQLGEMELWVCDDEEAGESSLSEDF
B18: DOMAIN_6738 (protein)
chain: FQTLLAFEDVAVFFSEEEWELLDELQKEVYKNTMRENYETLLSLGLTNMKPEIIAKIDAGEAPSVQNASYLEKRGKKSAAG
modifications: Microcaecilia unicolor
B19: DOMAIN_6807 (protein, listed as Xenopus laevis)
chain: LVKFEEVAVVFSEDEWNLLSDQQRGLYMEVMKENYEHLIYLGYEVPVILSLLQDGGGISSDAGSQSKSQQVAVAEGSNVNS
B20: DOMAIN_8036 (protein, listed as Alligator mississippiensis)
chain: AQRWEAFEDVALYFTQKEWELLRDGDKVLYQEQMLRNYQALVSLGYQGPTPDLICRIQRGDMELWVCDDEDPKESMWSEGL
B21: DOMAIN_7605 (protein, listed as Alligator sinensis)
chain: SKLSEAFEDVAVYFTWKEWALLEAADKMLYRDQMLKNYQALFSLGYRGPTPDLICRIQRGEMELWVSDLEEAGESSLSEDS
B22: DOMAIN_8282 (protein, listed as Peromyscus maniculatus)
chain: FQNSLTYDDVHINFTCEEWALLDASQKRLYKDVMLETYSNLTAIGYKWEDHNIEEHCQRFRRRGRHKRSRTEERPYECKQC
B23: DOMAIN_7607 (protein, listed as Alligator sinensis)
chain: MEPRDAFEDVAVYFTREEWALLDDGDKGLYRDQMLRNYQALVSLGYRGPTPDLICCIQRGKVELWVRDGEDHGEISGSEDL
B24: DOMAIN_8012 (protein, listed as Callipepla squamata)
chain: PSVPVTFRDVFVQFSRDEWALLDDEQKELHQSVMQSNYEVLMSLYCDLAKPEVLLQMERGEPCLPAEPDLQGAAVSLNPAA
B25: DOMAIN_7774 (protein)
chain: PQDSVTFEEVAVSFSREEWALLTDWQKNLYKDVMRDNYEMLNSLDLAAHKPDIILRIERGQEPCVGRLQRSKARERPNHVF
modifications: Pogona vitticeps
B26: DOMAIN_7716 (protein)
chain: VAFEDVAVYFTAEEWDLLGPNQKSLYSEVMMENYENVSYLADNWKKTIAFAHSQKDFIHKLHQRTHKEDEHHTRAEPCEST
modifications: Pogona vitticeps
B27: DOMAIN_7813 (protein, listed as Columba livia)
chain: WQEPVTFEDVAVYLSHAEWDAMAPEQRELYCSVMLDNYQLLASLGYPGPKPDIVYRLERGEEPWGCAPQSPLSWDGPRSPS

Test system: HBEGF locus
Type: cell-based, human
Details: high-throughput screen of dXR repression of the HBEGF gene; change in abundance of each domain in the library before and after diphtheria toxin selection

Row | Molecule | Log2 (fold change)
1 | B1 | 2.3403
2 | B2 | 3.2998
3 | B3 | 2.4918
4 | B4 | 2.6649
5 | B5 | 2.9259
6 | B6 | 3.1151
7 | B7 | 2.9932
8 | B8 | 2.7633
9 | B9 | 2.6712
10 | B10 | 3.0313
11 | B11 | 2.8238
12 | B12 | 2.9197
13 | B13 | 2.7074
14 | B14 | 2.4861
15 | B15 | 2.6823
16 | B16 | 2.2019
17 | B17 | 2.6093
18 | B18 | 2.9275
19 | B19 | 3.1615

Same assay, conditions: repressor domain in dXR, repression of the HBEGF gene; abundance of domain in library after vs before diphtheria toxin selection

Row | Molecule | Log2 (fold change)
20 | B20 | 2.3504
21 | B21 | 2.8444
22 | B22 | 3.9882
23 | B23 | 2.7102
24 | B24 | 3.2046
25 | B25 | 3.427
26 | B26 | 3.1171
27 | B27 | 3.4645
